According to patent publication US20250326823A1:

Key:
Experiment in all cases: cell-based or functional assay
[1] = target: SARS-CoV-2 spike (S) protein, BA.2.75.2 variant (SARS-CoV-2) (UniProt P0DTC2)
[2] = target: SARS-CoV-2 spike (S) protein, BA.2.75 variant (SARS-CoV-2) (UniProt P0DTC2)
[3] = target: SARS-CoV-2 spike (S) protein, variant BJ.1 (SARS-CoV-2) (UniProt P0DTC2)
[4] = target: SARS-CoV-2 spike (S) protein, BA.4/5 variant (SARS-CoV-2) (UniProt P0DTC2)
[5] = target: SARS-CoV-2 spike (S) protein, BA.2.12.1 variant (SARS-CoV-2) (UniProt P0DTC2)
[6] = target: SARS-CoV-2 spike (S) protein, variant BQ.1.1 (SARS-CoV-2) (UniProt P0DTC2)
[7] = target: SARS-CoV-2 spike (S) protein, BA.1 variant (SARS-CoV-2) (UniProt P0DTC2)
[8] = target: SARS-CoV-2 spike (S) protein, variant XBB (SARS-CoV-2) (UniProt P0DTC2)
[9] = target: SARS-CoV-2 spike (S) protein, BA.4.6 variant (SARS-CoV-2) (UniProt P0DTC2)
[10] = target: SARS-CoV-2 spike (S) protein, variant BA.2.86 (SARS-CoV-2) (UniProt P0DTC2)
[11] = target: SARS-CoV-2 spike (S) protein, variant EG.5.1 (SARS-CoV-2) (UniProt P0DTC2)
[12] = target: SARS-CoV-2 spike (S) protein, variant CH.1.1 (SARS-CoV-2) (UniProt P0DTC2)
[13] = target: SARS-CoV-2 spike (S) protein, variant XEC (SARS-CoV-2) (UniProt P0DTC2)
[14] = target: SARS-CoV-2 spike (S) protein, variant KP.2.3 (SARS-CoV-2) (UniProt P0DTC2)
[15] = target: SARS-CoV-2 spike (S) protein, variant KP.3.1.1 (SARS-CoV-2) (UniProt P0DTC2)
[16] = target: SARS-CoV-2 spike (S) protein, variant KP.2 (SARS-CoV-2) (UniProt P0DTC2)
[17] = target: SARS-CoV-2 spike (S) protein, variant JN.1 (SARS-CoV-2) (UniProt P0DTC2)
[18] = target: SARS-CoV-2 spike (S) protein, variant LB.1 (SARS-CoV-2) (UniProt P0DTC2)
[19] = target: SARS-CoV-2 spike (S) protein, variant KP.3 (SARS-CoV-2) (UniProt P0DTC2)
[20] = target: SARS-CoV-2 spike (S) protein, variant KP.2 (SARS-CoV-2)
[21] = target: SARS-CoV-2 spike (S) protein, variant EG.5.1 (SARS-CoV-2)
[22] = target: SARS-CoV-2 spike (S) protein, variant CH.1.1 (SARS-CoV-2)
[23] = target: SARS-CoV-2 spike (S) protein, variant XEC (SARS-CoV-2)
[24] = target: SARS-CoV-2 spike (S) protein, variant JN.1 (SARS-CoV-2)
[25] = target: SARS-CoV-2 spike (S) protein, variant KP.3 (SARS-CoV-2)
[26] = target: SARS-CoV-2 spike (S) protein, variant KP.2.3 (SARS-CoV-2)
[27] = target: SARS-CoV-2 spike (S) protein, variant BA.2.86 (SARS-CoV-2)
[28] = target: SARS-CoV-2 spike (S) protein, variant LB.1 (SARS-CoV-2)
[29] = target: SARS-CoV-2 spike (S) protein, variant KP.3.1.1 (SARS-CoV-2)
[30] = target: SARS-CoV-2 spike (S) protein, D614G (SARS-CoV-2) (UniProt P0DTC2)

LY-CoV-1404 (antibody)
pseudotyped neutralization potency IC50 [1]: 0.001 µg/mL | pseudotyped neutralization potency IC80 [1]: 0.005 µg/mL | pseudotyped neutralization potency IC50 [2]: 0.003 µg/mL | pseudotyped neutralization potency IC80 [2]: 0.015 µg/mL | pseudotyped neutralization potency IC50 [3]: > 10 µg/mL | pseudotyped neutralization potency IC80 [3]: > 10 µg/mL | pseudotyped neutralization potency IC50 [4]: 0.0014 µg/mL | pseudotyped neutralization potency IC80 [4]: 0.003 µg/mL | pseudotyped neutralization potency IC50 [5]: 0.0013 µg/mL | pseudotyped neutralization potency IC80 [5]: 0.004 µg/mL | pseudotyped neutralization potency IC50 [6]: > 10 µg/mL | pseudotyped neutralization potency IC80 [6]: > 10 µg/mL | pseudotyped neutralization potency IC50 [7]: 0.002 µg/mL | pseudotyped neutralization potency IC80 [7]: 0.005 µg/mL | pseudotyped neutralization potency IC50 [8]: > 10 µg/mL | pseudotyped neutralization potency IC80 [8]: > 10 µg/mL | pseudotyped neutralization potency IC50 [9]: 0.0004 µg/mL | pseudotyped neutralization potency IC80 [9]: 0.0014 µg/mL

VYD222 (antibody)
neutralizing activity IC50 (µg/ml (caption; values match nM)) [10]: 14.2 | neutralizing activity IC80 (µg/ml (caption; values match nM)) [10]: 36.7 | neutralizing activity IC50 (µg/ml (caption; values match nM)) [11]: 6 | neutralizing activity IC80 (µg/ml (caption; values match nM)) [11]: 20.9 | neutralizing activity IC50 (µg/ml (caption; values match nM)) [12]: 9.93 | neutralizing activity IC80 (µg/ml (caption; values match nM)) [12]: 30.4 | neutralizing activity IC50 (µg/ml (caption; values match nM)) [13]: > 67 | neutralizing activity IC80 (µg/ml (caption; values match nM)) [13]: > 67 | neutralizing activity IC50 (µg/ml (caption; values match nM)) [14]: 28.4 | neutralizing activity IC80 (µg/ml (caption; values match nM)) [14]: 66.3 | neutralizing activity IC50 (µg/ml (caption; values match nM)) [15]: 27.2 | neutralizing activity IC80 (µg/ml (caption; values match nM)) [15]: > 67 | neutralizing activity IC50 (µg/ml (caption; values match nM)) [16]: 4.56 | neutralizing activity IC80 (µg/ml (caption; values match nM)) [16]: 16.5 | neutralizing activity IC50 (µg/ml (caption; values match nM)) [17]: 4.71 | neutralizing activity IC80 (µg/ml (caption; values match nM)) [17]: 15.6 | neutralizing activity IC50 (µg/ml (caption; values match nM)) [18]: 30.8 | neutralizing activity IC80 (µg/ml (caption; values match nM)) [18]: > 67 | neutralizing activity IC50 (µg/ml (caption; values match nM)) [19]: 8.83 | neutralizing activity IC80 (µg/ml (caption; values match nM)) [19]: 39.5 | neutralization IC50 [20]: 0.684 µg/mL | neutralization IC50 [21]: 0.899 µg/mL | neutralization IC50 [22]: 1.49 µg/mL | neutralization IC50 [23]: > 10 µg/mL | neutralization IC50 [24]: 0.706 µg/mL | neutralization IC50 [25]: 1.32 µg/mL | neutralization IC50 [26]: 4.25 µg/mL | neutralization IC50 [27]: 2.13 µg/mL | neutralization IC50 [28]: 4.62 µg/mL | neutralization IC50 [29]: 4.05 µg/mL | neutralization IC50 [30]: 0.01 µg/mL
